For 1 substance, Kd results are on record in publication PMC5100581.

The assay deals with His-tagged Gins51 wild type (Thermococcus kodakaraensis). The experiment in a line: SPR. In general terms: In SPR one partner is held on a chip, and binding of the other changes the refractive index at the surface.

In turn, GAN mutant F55A/L57A (enzyme) registered a Kd of 0.23 µM.

For orientation: Kd means the equilibrium constant for the complex coming apart. High values mean lower affinity, low ones higher affinity.
